assay: yeast display, Sf9 membrane polyspecificity reagent, FACS + sequencing; frameworks hold sequencing errors
Procedure, shortened: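 Galactose induction of a Saccharomyces cerevisiae BJ5465 synthetic nanobody display library ran 36–48 hours. The cells were then stained for 1 hour at 4 °C with 10% biotinylated, detergent-solubilized Sf9 membrane reagent, pulled down on streptavidin microbeads and FACS-sorted into low and high (top ~1%) gates on expression and reagent-binding fluorescence. Labels for polyreactivity follow the gate of origin.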

Sequence	polyreactivity (PSR sort gate)
QVQLVESGGGLVQAGGSLRLSCAASGRTFSGYVMGWYRQAPGKERELVATINGSGASTYYADSVKGRFTISRDNAKNTVYLQRKSLKPEDSAVYYCAAKRYRPKYEYYYWGQGTQVTVSS	high polyreactivity
QVQLVESGGGLVQAGGSLRLSCAASGSIFAFNAMGWYRQAPGKERELVAAITRSGGRTFYADSVKGRFTISRDNAKNTVYLQMNSLKPEDTAVYYCAASEWRFSSYGGVKYYVEYDYWGQGTQVTVSS	high polyreactivity
QVQLVESGGGLVQAGGSLRLSCAASGRTSRRNAMGWYRQAPGKERELVAAISGSGGRTNSADSVKGRFTISRDNAQNTVYLQMNSLKPEDTAVYYCNVLTRYYLGYDYWGQGTQVTVSS	high polyreactivity
QVQLVESGGGLVQAGGSLRLSCAASGRTYSNAMGWYRQAPGKERELVAAITWSGGRTYYADSVKGRFTISRDNAKNTVYLQMNSLKPEDTAVYYCAADSIWWPLWFDYWGQGTQVTVSS	high polyreactivity
QVQLVESGAGLVHAGGSLRLSCAASGRIFGINAMGWYRQAPGKERELVAAINWSGGSTYYADSVKGRFTISRDNAKNTVYLQMNSVKPEDTAVYYCAAQKYKRVGYWGQGTQVTVSS	high polyreactivity
QVQLLESGGGLVQAGGSLRLSCAASGNIFMDYAMGWYRHAPGKERELVAAITSRVDDTYYADSVKGRFTISRDNAKNTVYLQMNSLKPEDTAVYYCAADYSVTLRIGGYYWFYAFDYWGQGTQVTVSS	low polyreactivity
QVQLVESGGGLVQAGGSLRLSCAASGRTFRYYVMGWYRQAPGKERELVAGISGSGGNTYYADSVKGRFTISRDNAKNTVYLQMNSLKPEDTAVYYCAARQRGSVGVPYNSWGQGTQVTVSW	high polyreactivity
QVQLVESGGGLVQAGGSLRLSCAASGRTFRGYAMGWYRQAPGKERELVAAITSSGGRTYYADSVKGRFTISRDNAKNTVYLQMNSLKPEDTAVYYCAKDYYSPRGYDYWGQGTQVTVSS	high polyreactivity
QVQLVESGGGLFQAGGSLRLSCAASGFSFYGNTMGWYRQAPGKERELFASITSGSSTHYADSVKGRFTISRDNAKNTVYLQMNSLKPDDTAVYYCNVEDIQFGKYDYWGQGTQVTVSS	low polyreactivity
QVQLVESGGGLVQAGGSLRLSCAASGYIFFFNAMAWYRQAPGKERELVAAITRRGVSTYYADSVKGRFTISRDNAKNTVYLQMNSLKPEDTAVYYCATEHNHLGYYYWGQGTQVTVSS	low polyreactivity
QVQLVESGGGLVQAGGSLRLSCAASGRTSDGYARGWYRQAPGKERELVAGITEGGGDTYYADSVKGRFTISRDNAKNTVYLQMNSLKPEDTAVYYCNAVEGSRLPYDYWGQGTQVTVSS	low polyreactivity
QVQLVESGGGLVQAGGSLRLSCAASGRIFGLNAMGWYRQAPGKEREFVAAIRWRGGSTYYADSVKGRFTISRDNAKNTVYLQMNSLKPEDTAVYYCAADRNLGVSRYGYWGQGTQVTVSS	high polyreactivity
QVQLVESGGGLVQAGGSLRLSCAASGSIVYYNAMGWYRQAPGKERELVASISNGGSTDYADSVKGRFTISRDNAKNTVYLQMNSLKPEDTAVYSCNAKQSYRSEYDYWGQGTQVTVSS	low polyreactivity
QVQLVESAGGLVQAGGSLRLSCAASGRTFFRNAMGWYRQAPGKERELVAGITASGGNTYYADSVKGRFTISRDNAKNTVYLQMNSLKPEDTAVYFCNAVYSLARITRAGYGYWGQGPQVTVSS	high polyreactivity
QVQLVESGGGLDQAGGSLRLSCAASGITIIGYAMGWYRQAHGKERELVASITSGANTNYADSVKGRFTISRANAKNTVYFQMNSLKPEATAVYYCAAPEHGTYANILGEPLDYWGQGSQVTVSS	low polyreactivity
QVQLQESGGGLVQAGGSLRLSCAASGSNFKVVEMGLYRQAPAKDREFVATIGEGGNTYYADSVKGRFTISRDNAKNTVYLQMNSLKPEDTAVYFYAVVLGTSYRYTYWGQGTQVTVSS	low polyreactivity
QVQLVESGGGLVQAGGSLRLSCAASGFIFTLYTMGWYRPAPGKERELVAAIDKKGSTYYADSVKGRFTISRDNAKNTVYLQMNSLKPEDTAVYYCAADDRYRGNREDYWGQGTQVTVSS	low polyreactivity
